Results published in paper PMC5175346.

Columns and labels:
Test in all cases: fluorescence anisotropy
PriA K328A = PriA K328A (Escherichia coli, UniProt P17888 1-732, K328A)
PriA Q329A = PriA Q329A (Escherichia coli, UniProt P17888 1-732, Q329A)
PriA Y335A = PriA Y335A (Escherichia coli, UniProt P17888 1-732, Y335A)
PriA W333A = PriA W333A (Escherichia coli, UniProt P17888 1-732, W333A)
PriA Q330A = PriA Q330A (Escherichia coli, UniProt P17888 1-732, Q330A)
PriA R334A = PriA R334A (Escherichia coli, UniProt P17888 1-732, R334A)
PriA wt = PriA wt (Escherichia coli, UniProt P17888 1-732)

Measured: binding result

B1: two-stranded fork, structure #1 (1b-98/3L-98) (structured_DNA)
DNA 1: GCAAGCCTTCTACAGGTCGACCGTCCATGGCGACTCGAGACCGCAATACGGATAAGGGCTGAGCACGCCGACGAACATTCACCACGCCAGACCACGTA
DNA 2: GACTATCTACGTCCGAGGCTCGCGCCGCAGACTCATTTAGCCCTTATCCGTATTGCGGTCTCGAGTCGCCATGGACGGTCGACCTGTAGAAGGCTTGC
binds: all assays above
